Consider six substances from US20100261220A1.

For series [1], the system named is brain α-tubulin (taxotere-stabilized brain microtubules, Example VII).
For series [2], the system named is brain β-tubulin (taxotere-stabilized brain microtubules, Example VII).
For series [3], the system named is adult murine brain tubulin.
For series [4], the system named is young murine brain tubulin.
Series [5] has as its target α-tubulin of taxotere-stabilized mouse brain microtubules (mouse). Put plainly: cell-based or functional assay.
For series [6], the target named is β-tubulin of taxotere-stabilized mouse brain microtubules (mouse). Kind of series: cell-based or functional assay.
Series [7] has as its system α-tubulin of taxotere-stabilized mouse brain microtubules.

For “GFP-Ttll3Ap (Tetrahymena Ttll3Ap with N-terminal GFP)”, the “in vitro tubulin glycylation activity (3H-glycine incorporation)” value in series [1] is “A GFP-Ttll3Ap-enriched extract showed a strong increase in glycylation activity on α- and β-tubulin”; in series [2], “A GFP-Ttll3Ap-enriched extract showed a strong increase in glycylation activity on α- and β-tubulin”.
With “Ttll6ApΔ710-GFP (truncated Tetrahymena Ttll6Ap, amino acid codons 1-710, with N-terminal GFP)”, the “in vitro glutamylase activity” value in the series on NAP proteins is “No in vitro activity toward NAP proteins was detected”.
In the case of “GFP-Ttll3Bp (Tetrahymena Ttll3Bp with N-terminal GFP)”, the “in vitro tubulin glycylation activity (3H-glycine incorporation)” value in [1] is on record as “the GFP-Ttll3Bp-enriched extract had increased activity on α-tubulin”.
For “GFP-Ttll6Ap (full-length Tetrahymena Ttll6Ap with N-terminal GFP)”, the “in vitro glutamylation of microtubules (3H-glutamate, fluorogram)” value with HeLa tubulin is recorded as “failed to detectably modify microtubules made of HeLa tubulin”; in series [3], “Enriched GFP-Ttll6Ap strongly modified microtubules made of adult brain tubulin”; in series [4], “less efficiently microtubules made of young brain tubulin”. Moreover, the “in vitro glutamylation of unpolymerized tubulin (3H-glutamate, fluorogram)” value in series [3] is listed as “enriched GFP-Ttll6Ap did not modify unpolymerized adult brain tubulin”.
On to “Ttll6ApΔ710-GFP (truncated Tetrahymena Ttll6Ap, amino acid codons 1-710, with N-terminal GFP) (from UniProt P42212 1-238) (enzyme)”, for which the figures for the in vitro glutamylase activity of extracts of overexpressing cells, compared to non-induced cells in series [5] and in series [6] were 10 fold and 100 fold, respectively.
As for “Ttll1p-GFP (Tetrahymena thermophila Ttll1p with an N-terminal GFP)”, in series [7], the “in vitro glutamylase activity of the anti-GFP immunoprecipitate” value was “a glutamylase activity directed mostly toward α-tubulin was co-immunoprecipitated with anti-GFP antibodies from extracts of overexpressing cells”.
